Kd data for two molecules are collected here from article PMC10934791 (Molecules, 2024).

Assay [1] deals with recombinant Lymnaea stagnalis acetylcholine-binding protein (AChBP) produced in LEXSY (Lymnaea stagnalis). The experiment in a line: radioligand binding.
In assay [2] the target is T1, recombinant L. stagnalis AChBP expressed in the insect Sf9 cells (Lymnaea stagnalis, UniProt P58154 20-229).
T1 construct: also called insect cell-produced AChBP; standard specimen of insect cell-produced AChBP
Briefly: radioligand binding. The settings on record: both partners purified.

T1 sequence (P58154 20-229): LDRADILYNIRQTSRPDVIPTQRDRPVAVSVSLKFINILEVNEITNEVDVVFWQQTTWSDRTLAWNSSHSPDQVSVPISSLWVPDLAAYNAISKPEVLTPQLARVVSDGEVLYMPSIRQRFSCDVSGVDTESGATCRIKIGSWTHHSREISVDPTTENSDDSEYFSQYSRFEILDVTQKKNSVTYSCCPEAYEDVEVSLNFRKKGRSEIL
recombinant Lymnaea stagnalis acetylcholine-binding protein (AChBP) produced in LEXSY (Lymnaea stagnalis), sequence (P58154 20-229 limits assumed): as the sequence (P58154 20-229) above

The Kd is the concentration at which binding is half-saturated. For the molecule “radioiodinated α-bungarotoxin (from UniProt P60615 22-95) (ligand)”, the Kd in assay [1] was 0.05 nM.

B1: radioiodinated α-bungarotoxin (ligand)
chain: IVCHTTATSPISAVTCPPGENLCYRKMWCDAFCSSRGKVVELGCAATCPSKKPYEEVTCCSTDKCNPHPKQRPG
Turning to B1, the Kd in assay [2] worked out at 0.062 ± 0.013 nM.
